Experimental findings from patent US20170240628A1 (CELLMID, published 2017) are described below.

Assay [1] addresses T1, recombinant murine midkine (muMK) (murine, UniProt P12025 23-140).
T1 construct: also called murine MK; Murine MK
T1 sequence (looked up): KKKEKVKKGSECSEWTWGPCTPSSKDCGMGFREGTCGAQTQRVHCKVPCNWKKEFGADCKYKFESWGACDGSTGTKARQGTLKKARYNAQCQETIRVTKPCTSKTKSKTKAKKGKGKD
Description: ELISA, plate coated with muMK. The method, then:
(§1) The binding specificity and affinity of the humanised anti-MK antibodies to recombinant human MK (huMK) and murine MK (muMK) was assessed by ELISA. ELISA plates (Nunc Immuno MaxiSorp 96 well flat-bottom were coated with 100 uL of 2 ug/mL of either huMK or muMK in 2% BSA/PBS (overnight at room temperature). After washing, blocking (1 h at 37° C.), and washing again, the humanised anti-MK and chimeric antibodies described in Example 1 were analysed for binding to huMK or muMK at concentrations ranging between 3 μg/ml and 0.00004 μg/ml in 2% BSA/PBS (1 h at 37° C.). After washing, the binding of antibody was detected with goat anti-mouse IgG (Fab specific)-HRP conjugate (Sigma, Cat. No. A9917) and SigmaFast OPD substrate (Sigma, Cat. No. P9187). The reaction was stopped with 3 M HCl, absorbance read at 490 nm on a Dynex Technologies MRX TC II plate reader and the binding curves plotted. Binding affinity data for the humanised anti-MK antibodies to huMK and muMK are presented in Table 6 and Table 7 respectively, and in FIG. 3.
Background: ELISA stands for enzyme-linked immunosorbent assay.

Assay [2] concerns the target T2, recombinant human midkine (huMK) (human, UniProt P21741 21-143).
T2 construct: also called human MK; Human MK
T2 sequence (looked up): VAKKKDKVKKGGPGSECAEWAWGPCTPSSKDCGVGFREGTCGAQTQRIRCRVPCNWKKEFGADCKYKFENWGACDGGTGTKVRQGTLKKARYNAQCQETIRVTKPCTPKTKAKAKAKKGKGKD
Put plainly: ELISA by the methods of Example 2 (printed as KD). On the procedure: as §1
(§2) KD values for hIP14-H5L8, hIP14-H6L3 and hIP14-H6L8 was then compared with the KD values obtained for the corresponding murine IP14 precursor antibody and the chimeric antibody using the methods described in Example 2. As is apparent from Table 7, the humanised mIP14 antibodies designated hIP14-H5L8, hIP14-H6L3, and hIP14-H6L8 were each shown to have better binding affinity than the murine IP14 precursor antibody and the chimeric antibody for huMK and muMK. Based on this finding, these candidate antibodies were produced to 100 mg scale to enable further testing in functional assays to determine biological function.

Assay [3] has as its target T1, recombinant murine midkine (muMK). Description: ELISA by the methods of Example 2 (printed as KD). On the procedure:
as §1, §2

In assay [4] the target is T2, recombinant human midkine (huMK). Description: cell-based or functional assay.
Assay [5] shares this target. Put plainly: ELISA, plate coated with huMK. On the procedure:
as §1

For assay [6], the target named is T1, recombinant murine midkine (muMK). Put plainly: ELISA on plate-coated muMK, antibody titrated up to 3 µg/ml, Abs 450nm on the sheet's axis [continued), panel IP14 Hv3 Murine Midkine]. On the procedure:
as §1, with “The reaction was stopped with 3 M HCl, absorbance read at 490 nm on a Dynex Technologies MRX TC II plate reader and the binding curves plotted.” left out

B1: IP14-H6L8 (antibody, V domains shown)
VH: QVQLVQSGGGLVKPGHSLRLSCAASGQSFSSYWMNWVRQAPGKGLEWIGMIHPSDSETILNQKFKDKATLSVDIAKNSAYLQMNSLRAEDTAVYYCSSWSAKRGDFWGQGTLVTVSS
VL: DIVLTQSPATLSLSPGERATLSCRASESISNNLHWYQQKPHQAPRLLIYYASQSISGVPARFSGSGSGTDFTLTISSVEPEDFAVYYCQQSNSWPLTFGQGTKVEIKR
notes: also called hIP14-H6L8; Hv6 Lv8
Turning to B1, the EC50 in assay [1] is 0.091 nM. The Kd in assay [2] is 0.042 nM. Further, in assay [3], the Kd came to 0.091 nM. Besides, in assay [4], the “% Inhibition of UMR106 cell migration, Assay 4” value (“% Inhibition … Assay 4” below) amounted to 44%; the “% Inhibition of UMR106 cell migration, Assay 5” value (“% Inhibition … Assay 5” for short) came to 24%; the “% Inhibition of UMR106 cell migration, Assay 6” value (from here on “% Inhibition … Assay 6”) is 48%; the “Mean % Inhibition of UMR106 cell migration” value (from here on “Mean % Inhibition”) worked out at 38.7%. In addition, in assay [4], the “Mean Cells/Field, Assay 4 (UMR106 migration, antibody 100 ug/mL, MK-17 20 µg/mL)” value came to 27 cells/field; the “Mean Cells/Field, Assay 5 (UMR106 migration, antibody 100 ug/mL, MK-17 20 µg/mL)” value was determined as 32 cells/field; the “Mean Cells/Field, Assay 6 (UMR106 migration, antibody 100 ug/mL, MK-17 20 µg/mL)” value is 22 cells/field. In assay [5], the EC50 stood at 0.042 nM.

B2: IP14-H6L7 (antibody, V domains shown)
VH: QVQLVQSGGGLVKPGHSLRLSCAASGQSFSSYWMNWVRQAPGKGLEWIGMIHPSDSETILNQKFKDKATLSVDIAKNSAYLQMNSLRAEDTAVYYCSSWSAKRGDFWGQGTLVTVSS
VL: DIVLTQSPATLSLSPGERANLSCRASESISNNLHWYQQKPHQAPRLLIYYASQSISGVPARFSGSGSGTDFNLTISSVEPEDFAVYYCQQSNSWPLTFGQGTKVEIKR
notes: also called Hv6 Lv7
For the molecule B2, the EC50 in assay [1] turned out to be 0.051 nM; in assay [5], 0.068 nM.

B3: IP14-H5L6 (antibody, V domains shown)
VH: QVQLVQSGGGLVQPGGSLRLSCAASGQSFSSYWMNWVRQAPGQGLEWIGMIHPSDSETILNQKFKDKATLTVDISKNTAYLQMNSLRAEDTAVYYCSSWSAKRGDFWGQGTLVTVSS
VL: EIVLTQSPSTLSASVGDRVNITCRASESISNNLHWYQQKPHKAPKLLIYYASQSISGVPSRFSGSGSGTEFNLTISSVQPDDFATYYCQQSNSWPLTFGQGTKVEIKR
notes: also called Hv5 Lv6
With B3, the EC50 in assay [1] is 0.044 nM; in assay [5], 0.073 nM.

B4: IP14-H5L8 (antibody, V domains shown)
VH: QVQLVQSGGGLVQPGGSLRLSCAASGQSFSSYWMNWVRQAPGQGLEWIGMIHPSDSETILNQKFKDKATLTVDISKNTAYLQMNSLRAEDTAVYYCSSWSAKRGDFWGQGTLVTVSS
VL: DIVLTQSPATLSLSPGERATLSCRASESISNNLHWYQQKPHQAPRLLIYYASQSISGVPARFSGSGSGTDFTLTISSVEPEDFAVYYCQQSNSWPLTFGQGTKVEIKR
notes: also called hIP14-H5L8; Hv5 Lv8
B4: the EC50 in assay [1] worked out at 0.05 nM. The Kd in assay [2] was determined as 0.06 nM. Further, the Kd in assay [3] turned out to be 0.05 nM. For the same molecule, in assay [4], the “% Inhibition … Assay 4” value was 60%; the “% Inhibition … Assay 5” value was determined as 31%; the “% Inhibition … Assay 6” value is 31%; the “Mean % Inhibition” value was 40.7%. Moreover, in assay [4], the “Mean Cells/Field, Assay 4 (UMR106 migration, antibody 100 ug/mL, MK-17 20 µg/mL)” value was 19 cells/field; the “Mean Cells/Field, Assay 5 (UMR106 migration, antibody 100 ug/mL, MK-17 20 µg/mL)” value was determined as 29 cells/field; the “Mean Cells/Field, Assay 6 (UMR106 migration, antibody 100 ug/mL, MK-17 20 µg/mL)” value is 29 cells/field. In addition, the EC50 in assay [5] was 0.06 nM.

B5: IP14-H6L3 (antibody, V domains shown)
VH: QVQLVQSGGGLVKPGHSLRLSCAASGQSFSSYWMNWVRQAPGKGLEWIGMIHPSDSETILNQKFKDKATLSVDIAKNSAYLQMNSLRAEDTAVYYCSSWSAKRGDFWGQGTLVTVSS
VL: DIVLTQSPATLSLSPGERATLSCRASESISNNLHWYQQKPGQAPRLLIYYASQSISGIPARFSGSGPGTDFTLTISSLEPEDFAVYYCQQSNSWPLTFGGGTKLEIKR
notes: also called hIP14-H6L3; Hv6 Lv3
Regarding B5, in assay [1], the EC50 worked out at 0.048 nM. Besides, in assay [2], the dissociation constant (Kd) worked out at 0.07 nM. In addition, the Kd in assay [3] came out at 0.048 nM. In assay [4], the “% Inhibition … Assay 4” value was found to be 48%; the “% Inhibition … Assay 5” value was determined as 40%; the “% Inhibition … Assay 6” value amounted to 45%; the “Mean % Inhibition” value is 44.3%. Moreover, in assay [4], the “Mean Cells/Field, Assay 4 (UMR106 migration, antibody 100 ug/mL, MK-17 20 µg/mL)” value worked out at 25 cells/field; the “Mean Cells/Field, Assay 5 (UMR106 migration, antibody 100 ug/mL, MK-17 20 µg/mL)” value was 25 cells/field; the “Mean Cells/Field, Assay 6 (UMR106 migration, antibody 100 ug/mL, MK-17 20 µg/mL)” value was found to be 23 cells/field. In addition, the EC50 in assay [5] is 0.07 nM.

B6: IP14-H3L3 (antibody, V domains shown)
VH: QVQLVQSGAEVKKPGASVKVSCKASGQSFSSYWMNWVRQAPGQGLEWMGMIHPSDSETILNQKFKDKVTMTRDTSTSTVYMELSSLRSEDTAVYYCARWSAKRGDFWGQGTLVTVSS
VL: DIVLTQSPATLSLSPGERATLSCRASESISNNLHWYQQKPGQAPRLLIYYASQSISGIPARFSGSGPGTDFTLTISSLEPEDFAVYYCQQSNSWPLTFGGGTKLEIKR
notes: also called Hv3 Lv3
Regarding B6, the EC50 in assay [5] was 5.79 nM. Besides, the binding result in assay [6] is “binds”.

B7: IP14-H6L6 (antibody, V domains shown)
VH: QVQLVQSGGGLVKPGHSLRLSCAASGQSFSSYWMNWVRQAPGKGLEWIGMIHPSDSETILNQKFKDKATLSVDIAKNSAYLQMNSLRAEDTAVYYCSSWSAKRGDFWGQGTLVTVSS
VL: EIVLTQSPSTLSASVGDRVNITCRASESISNNLHWYQQKPHKAPKLLIYYASQSISGVPSRFSGSGSGTEFNLTISSVQPDDFATYYCQQSNSWPLTFGQGTKVEIKR
notes: also called Hv6 Lv6
B7: the values for the EC50 in assay [1] and in assay [5] were 0.048 nM and 0.088 nM, respectively.

B8: murine IP14 precursor antibody (antibody, V domains shown)
VH: QVQLQQPGAELVRPGHSVKLSCKASGQSFSSYWMNWVRQRPGQGLEWIGMIHPSDSETILNQKFKDKATLTVDISSNTAYMQLSSPTSEDSAVYFCSSWSAKRGDFWGQGTTLTVSS
VL: DIVLTQSPATLSVTPGDSVNLSCRASESISNNLHWYQQKSHESPRLLIKYASQSISGIPSRFSGSGSGTDFNLSVNSVETEDFGMYFCQQSNSWPLTFGAGTKLELKR
notes: Murine monoclonal antibody; also called mIP14; mAb IP14
Regarding B8, in assay [2], the Kd was found to be 0.144 nM. Further, in assay [3], the dissociation constant Kd came out at 0.166 nM. Also, in assay [4], the “% Inhibition … Assay 4” value turned out to be 6%; the “% Inhibition … Assay 5” value amounted to 10%; the “% Inhibition … Assay 6” value turned out to be 38%; the “Mean % Inhibition” value came to 18%. For the same molecule, in assay [4], the “Mean Cells/Field, Assay 4 (UMR106 migration, antibody 100 ug/mL, MK-17 20 µg/mL)” value was 45 cells/field; the “Mean Cells/Field, Assay 5 (UMR106 migration, antibody 100 ug/mL, MK-17 20 µg/mL)” value is 38 cells/field; the “Mean Cells/Field, Assay 6 (UMR106 migration, antibody 100 ug/mL, MK-17 20 µg/mL)” value worked out at 26 cells/field.

B9: mouse-human chimeric IP14 antibody (antibody, V domains shown)
VH: QVQLQQPGAELVRPGHSVKLSCKASGQSFSSYWMNWVRQRPGQGLEWIGMIHPSDSETILNQKFKDKATLTVDISSNTAYMQLSSPTSEDSAVYFCSSWSAKRGDFWGQGTTLTVSS
VL: DIVLTQSPATLSVTPGDSVNLSCRASESISNNLHWYQQKSHESPRLLIKYASQSISGIPSRFSGSGSGTDFNLSVNSVETEDFGMYFCQQSNSWPLTFGAGTKLELKR
notes: also called chimeric antibody; Hv0 Lv0
Turning to B9, the EC50 in assay [1] came to 0.13 nM; in assay [5], 0.104 nM. Also, the Kd worked out at 0.104 nM in assay [2] and 0.13 nM in assay [3].

B10: IP14-H3L6 (antibody, V domains shown)
VH: QVQLVQSGAEVKKPGASVKVSCKASGQSFSSYWMNWVRQAPGQGLEWMGMIHPSDSETILNQKFKDKVTMTRDTSTSTVYMELSSLRSEDTAVYYCARWSAKRGDFWGQGTLVTVSS
VL: EIVLTQSPSTLSASVGDRVNITCRASESISNNLHWYQQKPHKAPKLLIYYASQSISGVPSRFSGSGSGTEFNLTISSVQPDDFATYYCQQSNSWPLTFGQGTKVEIKR
notes: also called Hv3 Lv6
As to B10, the EC50 in assay [5] was found to be 5.7 nM. Also, the binding result in assay [6] is listed as “binds”.

One may read the EC50 as the concentration that produces a half-maximal response. The Kd is the constant that tells how readily two partners part at equilibrium.
